Experimental findings from patent publication US20210107983A1 (Boehringer Ingelheim, published 2021) are described below.

What is called Kd is the constant that tells how readily two partners part at equilibrium. Read a high Kd as weaker binding.

Assay [1] has as its target T1, Cyno B7H6-His (cynomolgus monkey).
T1 construct: also called CyB7H6; cyB7-H6
T1 chain: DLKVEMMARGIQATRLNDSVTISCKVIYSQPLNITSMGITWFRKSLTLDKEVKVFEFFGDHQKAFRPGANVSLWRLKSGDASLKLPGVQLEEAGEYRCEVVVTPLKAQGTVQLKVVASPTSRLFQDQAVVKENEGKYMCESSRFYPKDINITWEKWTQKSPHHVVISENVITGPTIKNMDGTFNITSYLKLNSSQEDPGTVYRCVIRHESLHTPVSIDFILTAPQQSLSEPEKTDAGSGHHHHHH
The assay can be described thus: SPR, binder captured on Protein A/G, B7H6 analyte. The essentials: (§1)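 B7H6/CD3 binder captured (~700 RU) on a Protein A/G CM5 surface in HBS-EP+. Human or cyno B7H6 injected at 0–100 nM and human B7H1 at 0 nM and 1 μM, 300 s association and 1200 s dissociation. Data double-referenced against the reference flow cell and blank.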
A general note: In SPR one partner is held on a chip, and binding of the other changes the refractive index at the surface.

For a further assay, the target named is T2, Human CD3 E+G HuFc-6xHis (human).
T2 construct: also called HuCD3E+G-hFc; huCD3
The experiment in a line: SPR, CD3E+G-hFc immobilized, binder analyte. Summed up: (§2)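 On a ProteOn XPR36, human and cyno CD3E+G-hFc were amine-coupled to a GLM chip at 0.4, 0.2 and 0.1 μg/mL in 10 mM acetate pH 4.5. B7H6/CD3 binding protein (0–100 nM) flowed in HBS-EP+ at 30 μL/min, with 300 s association and 600 s dissociation. Interspot and blank responses were subtracted.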

Assay [2] has as its target T3, Cyno CD3 E+G HuFc-6xHis (cynomolgus monkey).
T3 construct: also called CyCD3E+G-hFc; cyCD3
The assay can be described thus: SPR, CD3E+G-hFc immobilized, binder analyte. The essentials:
as §2

Assay [3] addresses T3, Cyno CD3 E+G HuFc-6xHis. The assay can be described thus: ratio of SPR KDs cyno/human.
Assay [4] addresses T1, Cyno B7H6-His. The experiment in a line: ratio of SPR KDs cyno/human.
In another assay the target is T4, CD3 on human T-cells (human, UniProt P07766;P09693).
T4 construct: endogenous, on the surface of purified T-cells; also called human T-cells expressing CD3
The experiment in a line: flow cytometry on purified human T-cells, PE anti-human secondary antibody. The procedure: T-cells were isolated by negative selection using the Pan T Cell Isolation Kit II (Miltenyi Biotec #130-091-156). In brief, cells were resuspended in 40 μl buffer PBS/0.5% BSA (Gibco ref #041-94553 M)/2 mM EDTA (Invitrogen ref #15575-038) per 10 Mio cells and incubated with 10 μl of Biotin-Antibody cocktail per 10 Mio cells for 5 min at 4° C. Subsequently, 30 μl buffer and 20 μl anti-biotin MACS® MicroBeds/10 million cells were added and incubated for 10 min at 4° C. Subsequently the mixture was placed in a pre-rinsed 25LS column (Miltenyi Biotec #130-042-401) in the magnetic field of suitable MACS® microbeads separator (Miltenyi Biotec). Flow-through was collected and washed in assay medium.
T-cells were stained with increasing concentrations of two-step purified B7H6/CD3 binding proteins in FACS buffer (PBS/0.5% BSA/0.05% sodium azide). Bound molecules were detected with PE-conjugated anti-human secondary antibody (Sigma-Aldrich, #P8047).
Background: In flow cytometry, cells or beads pass a laser one at a time.

Assay [5] has as its target T5, chicken egg white lysozyme (chicken, UniProt P00698 19-147).
T5 construct: unrelated positively charged protein, amine-coupled to the chip; also called Lysozyme (positive)
The assay can be described thus: SPR, 1 µM binder over immobilized lysozyme. The essentials: (§3)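 Non-specific binding tested with samples at 1 μM in HBS-EP at 25 °C, 5 μL/min, over lysozyme or trypsin inhibitor amine-coupled to CM5 chip (3000–5000 RU). Association 10 min, dissociation 15 min.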

For the next assay, the target named is T6, Human B7H1 (human, UniProt Q9NZQ7 20-239).
T6 construct: also called HuB7H1; huB7-H1
The experiment in a line: SPR, binder captured on Protein A/G, HuB7H1 analyte. The essentials: as §1

For assay [6], the target named is T7, trypsin inhibitor from Glycine max soybean (Glycine max (soybean)).
T7 construct: unrelated negatively charged protein, amine-coupled to the chip
The experiment in a line: SPR, 1 µM binder over immobilized trypsin inhibitor. The essentials: as §3

T4 sequence (P07766 23-207, chain 1 of 2): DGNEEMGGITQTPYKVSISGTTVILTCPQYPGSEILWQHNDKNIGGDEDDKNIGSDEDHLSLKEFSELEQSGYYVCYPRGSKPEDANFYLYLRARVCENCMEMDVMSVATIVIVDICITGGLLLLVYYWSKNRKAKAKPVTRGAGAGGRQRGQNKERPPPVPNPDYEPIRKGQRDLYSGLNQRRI
T4 sequence (P09693 23-182, chain 2 of 2): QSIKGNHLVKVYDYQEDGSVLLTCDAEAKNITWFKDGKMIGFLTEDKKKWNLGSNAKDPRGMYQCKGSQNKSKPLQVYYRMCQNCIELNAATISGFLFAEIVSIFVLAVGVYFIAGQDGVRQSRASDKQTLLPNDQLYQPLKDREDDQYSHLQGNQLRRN
T2 sequence (chain, as listed by the source limits assumed): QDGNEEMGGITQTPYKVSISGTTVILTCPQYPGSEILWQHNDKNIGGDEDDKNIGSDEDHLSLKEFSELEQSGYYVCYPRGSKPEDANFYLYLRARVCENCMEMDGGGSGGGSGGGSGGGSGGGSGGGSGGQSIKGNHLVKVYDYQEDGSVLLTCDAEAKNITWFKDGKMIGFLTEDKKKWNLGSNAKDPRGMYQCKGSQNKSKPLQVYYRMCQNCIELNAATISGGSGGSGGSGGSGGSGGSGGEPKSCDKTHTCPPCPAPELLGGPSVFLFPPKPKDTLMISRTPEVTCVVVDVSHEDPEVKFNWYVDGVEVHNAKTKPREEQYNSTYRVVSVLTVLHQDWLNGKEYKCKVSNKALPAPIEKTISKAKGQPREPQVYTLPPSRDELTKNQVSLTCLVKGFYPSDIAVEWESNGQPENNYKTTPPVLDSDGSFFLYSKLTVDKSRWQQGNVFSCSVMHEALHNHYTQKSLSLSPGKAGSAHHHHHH
T7 sequence (P01070 25-205): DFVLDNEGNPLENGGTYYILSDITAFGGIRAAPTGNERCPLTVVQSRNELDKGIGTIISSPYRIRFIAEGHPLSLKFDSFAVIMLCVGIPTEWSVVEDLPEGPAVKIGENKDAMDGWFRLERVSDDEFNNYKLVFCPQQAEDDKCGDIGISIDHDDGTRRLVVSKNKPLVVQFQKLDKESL
T6 sequence (Q9NZQ7 other isoform, or with tags, fused parts or gaps limits assumed): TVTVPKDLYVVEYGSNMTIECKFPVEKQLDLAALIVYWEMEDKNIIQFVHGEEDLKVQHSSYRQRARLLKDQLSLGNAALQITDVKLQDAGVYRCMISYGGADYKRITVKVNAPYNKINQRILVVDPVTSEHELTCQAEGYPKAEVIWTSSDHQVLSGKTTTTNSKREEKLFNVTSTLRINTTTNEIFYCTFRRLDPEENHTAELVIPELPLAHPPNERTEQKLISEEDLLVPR
T5 sequence (P00698 19-147): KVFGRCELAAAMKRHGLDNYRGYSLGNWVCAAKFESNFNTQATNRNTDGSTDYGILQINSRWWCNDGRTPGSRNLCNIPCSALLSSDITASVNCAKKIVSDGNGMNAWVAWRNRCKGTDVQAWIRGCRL
T3 sequence (chain, as listed by the source limits assumed): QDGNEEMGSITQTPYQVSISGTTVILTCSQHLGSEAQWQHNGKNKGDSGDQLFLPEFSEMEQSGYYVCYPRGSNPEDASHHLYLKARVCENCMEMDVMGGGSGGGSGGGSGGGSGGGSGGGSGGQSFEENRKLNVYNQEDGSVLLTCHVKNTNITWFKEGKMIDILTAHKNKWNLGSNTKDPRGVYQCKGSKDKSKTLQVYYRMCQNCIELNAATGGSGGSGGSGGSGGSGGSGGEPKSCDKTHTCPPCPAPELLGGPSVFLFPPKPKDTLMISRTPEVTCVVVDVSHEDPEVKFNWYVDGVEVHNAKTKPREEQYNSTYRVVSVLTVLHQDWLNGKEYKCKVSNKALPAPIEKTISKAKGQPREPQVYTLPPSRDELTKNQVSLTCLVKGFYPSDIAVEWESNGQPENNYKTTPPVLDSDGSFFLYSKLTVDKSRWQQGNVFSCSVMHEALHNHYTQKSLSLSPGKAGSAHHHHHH

B1: B7H6#14/CD3#2 (bispecific antibody, human IgG1, kappa, L234A L235A)
chain 1: DIQMTQSPSSLSASVGDRVTITCKASQNVGKYVAWYQQKPGKAPKSLIYSASNRYDGVPSRFSGSGSGTDFTLTISSLQPEDFATYFCQQYISYPLTFGAGTKLEIKRTVAAPSVFIFPPSDEQLKSGTASVVCLLNNFYPREAKVQWKVDNALQSGNSQESVTEQDSKDSTYSLSSTLTLSKADYEKHKVYACEVTHQGLSSPVTKSFNRGECGGGGSEGKSSGSGSESKSTEGKSSGSGSESKSTGGGGSQVQLVQSGAEVKKPGASVKVSCKASGYTFTNYWMNWMKQAPGQGLEWIGGIYLNGDSTDYNEKFKGKVTMTVDTSTSTVYMELSSLRSEDTAVYYCTRRGDYFGDFWGQGTLVTVSSASTKGPSVFPLAPSSKSTSGGTAALGCLVKDYFPEPVTVSWNSGALTSGVHTFPAVLQSSGLYSLSSVVTVPSSSLGTQTYICNVNHKPSNTKVDKRVEPKSCDKTHTCPPCPAPEAAGGPSVFLFPPKPKDTLMISRTPEVTCVVVDVSHEDPEVKFNWYVDGVEVHNAKTKPREEQYNSTYRVVSVLTVLHQDWLNGKEYKCKVSNKALPAPIEKTISKAKGQPREPQVYTLPPSREEMTKNQVSLWCLVKGFYPSDIAVEWESNGQPENNYKTTPPVLDSDGSFFLYSKLTVDKSRWQQGNVFSCSVMHEALHNHYTQKSLSLSPG
chain 2: not shown
notes: scFab-Fc heterodimer
Consider B1, for which the results for the dissociation constant (Kd) with Cyno B7H6-His [1], in the assay with Human CD3 E+G HuFc-6xHis and in the assay with Cyno CD3 E+G HuFc-6xHis [2] were 1 nM, 16.9 nM and 17.7 nM, respectively. Further, in the assay with Cyno CD3 E+G HuFc-6xHis [3], the “cy/hu CD3” value came out at 1. In addition, the “cy/hu B7-H6” value in the assay with Cyno B7H6-His [4] stood at 0.9. Moreover, the binding result with CD3 on human T-cells was “binds”; in the assay with Human B7H1, “no binding (tested: 1 µM)”. The “Non-specific binding (RU)” value amounted to 11.2 RU in assay [5] and 12.2 RU in [6].

B2: B7H6#23/CD3#3 (bispecific antibody, human IgG1, kappa, L234A L235A)
chain 1: DIQMTQSPSSLSASVGDRVTITCKASQNVGKYVAWYQQKPGKAPKSLIYSASNRYDAVPSRFSGSGSGTDFTLTISSLQPEDFATYFCQQYISYPLTFGAGTKLEIKRTVAAPSVFIFPPSDEQLKSGTASVVCLLNNFYPREAKVQWKVDNALQSGNSQESVTEQDSKDSTYSLSSTLTLSKADYEKHKVYACEVTHQGLSSPVTKSFNRGECGGGGSEGKSSGSGSESKSTEGKSSGSGSESKSTGGGGSQVQLVQSGAEVKKPGASVKVSCKASGYTFTSYWMNWMKQAPGQGLEWIGGIYLSGESTDYNEKFKGKVTMTVDTSTSTVYMELSSLRSEDTAVYYCTRRGDYFGDFWGQGTLVTVSSASTKGPSVFPLAPSSKSTSGGTAALGCLVKDYFPEPVTVSWNSGALTSGVHTFPAVLQSSGLYSLSSVVTVPSSSLGTQTYICNVNHKPSNTKVDKRVEPKSCDKTHTCPPCPAPEAAGGPSVFLFPPKPKDTLMISRTPEVTCVVVDVSHEDPEVKFNWYVDGVEVHNAKTKPREEQYNSTYRVVSVLTVLHQDWLNGKEYKCKVSNKALPAPIEKTISKAKGQPREPQVYTLPPSREEMTKNQVSLWCLVKGFYPSDIAVEWESNGQPENNYKTTPPVLDSDGSFFLYSKLTVDKSRWQQGNVFSCSVMHEALHNHYTQKSLSLSPG
chain 2: not shown
notes: scFab-Fc heterodimer
As for B2, the values for the dissociation constant (Kd) in the assay with Cyno B7H6-His [1], with Human CD3 E+G HuFc-6xHis and with Cyno CD3 E+G HuFc-6xHis [2] were 1.9 nM, 13.8 nM and 11.9 nM, respectively. Besides, the “cy/hu CD3” value in the assay with Cyno CD3 E+G HuFc-6xHis [3] was determined as 0.9. In addition, the “cy/hu B7-H6” value with Cyno B7H6-His [4] stood at 0.9. Also, the figures for the binding result with CD3 on human T-cells and with Human B7H1 were “binds” and “no binding (tested: 1 µM)”, respectively. For the same molecule, the “Non-specific binding (RU)” value in [5] is 18.9 RU; in assay [6], 38.7 RU.

B3: B7H6#23/CD3#4 (bispecific antibody, human IgG1, kappa, L234A L235A)
chain 1: DIQMTQSPSSLSASVGDRVTITCKASQNVGKYVAWYQQKPGKAPKSLIYSASNRYDAVPSRFSGSGSGTDFTLTISSLQPEDFATYFCQQYISYPLTFGAGTKLEIKRTVAAPSVFIFPPSDEQLKSGTASVVCLLNNFYPREAKVQWKVDNALQSGNSQESVTEQDSKDSTYSLSSTLTLSKADYEKHKVYACEVTHQGLSSPVTKSFNRGECGGGGSEGKSSGSGSESKSTEGKSSGSGSESKSTGGGGSQVQLVQSGAEVKKPGASVKVSCKASGYTFTSYWMNWMKQAPGQGLEWIGGIYLSGESTDYNEKFKGKVTMTVDTSTSTVYMELSSLRSEDTAVYYCTRRGDYFGDFWGQGTLVTVSSASTKGPSVFPLAPSSKSTSGGTAALGCLVKDYFPEPVTVSWNSGALTSGVHTFPAVLQSSGLYSLSSVVTVPSSSLGTQTYICNVNHKPSNTKVDKRVEPKSCDKTHTCPPCPAPEAAGGPSVFLFPPKPKDTLMISRTPEVTCVVVDVSHEDPEVKFNWYVDGVEVHNAKTKPREEQYNSTYRVVSVLTVLHQDWLNGKEYKCKVSNKALPAPIEKTISKAKGQPREPQVYTLPPSREEMTKNQVSLWCLVKGFYPSDIAVEWESNGQPENNYKTTPPVLDSDGSFFLYSKLTVDKSRWQQGNVFSCSVMHEALHNHYTQKSLSLSPG
chain 2: not shown
notes: scFab-Fc heterodimer
Consider B3, for which the Kd in the assay with Cyno B7H6-His [1] is 1.7 nM; with Human CD3 E+G HuFc-6xHis it was 3.8 nM; with Cyno CD3 E+G HuFc-6xHis [2], 3.6 nM. The “cy/hu CD3” value in the assay with Cyno CD3 E+G HuFc-6xHis [3] is 0.9. Moreover, the “cy/hu B7-H6” value in the assay with Cyno B7H6-His [4] is 1. The binding result with CD3 on human T-cells is given as “binds”; with Human B7H1 it was “no binding (tested: 1 µM)”. The “Non-specific binding (RU)” value is 6.8 RU in assay [5] and 20.7 RU in assay [6].

B4: B7H6#14/CD3#4 (bispecific antibody, human IgG1, kappa, L234A L235A)
chain 1: DIQMTQSPSSLSASVGDRVTITCKASQNVGKYVAWYQQKPGKAPKSLIYSASNRYDGVPSRFSGSGSGTDFTLTISSLQPEDFATYFCQQYISYPLTFGAGTKLEIKRTVAAPSVFIFPPSDEQLKSGTASVVCLLNNFYPREAKVQWKVDNALQSGNSQESVTEQDSKDSTYSLSSTLTLSKADYEKHKVYACEVTHQGLSSPVTKSFNRGECGGGGSEGKSSGSGSESKSTEGKSSGSGSESKSTGGGGSQVQLVQSGAEVKKPGASVKVSCKASGYTFTNYWMNWMKQAPGQGLEWIGGIYLNGDSTDYNEKFKGKVTMTVDTSTSTVYMELSSLRSEDTAVYYCTRRGDYFGDFWGQGTLVTVSSASTKGPSVFPLAPSSKSTSGGTAALGCLVKDYFPEPVTVSWNSGALTSGVHTFPAVLQSSGLYSLSSVVTVPSSSLGTQTYICNVNHKPSNTKVDKRVEPKSCDKTHTCPPCPAPEAAGGPSVFLFPPKPKDTLMISRTPEVTCVVVDVSHEDPEVKFNWYVDGVEVHNAKTKPREEQYNSTYRVVSVLTVLHQDWLNGKEYKCKVSNKALPAPIEKTISKAKGQPREPQVYTLPPSREEMTKNQVSLWCLVKGFYPSDIAVEWESNGQPENNYKTTPPVLDSDGSFFLYSKLTVDKSRWQQGNVFSCSVMHEALHNHYTQKSLSLSPG
chain 2: not shown
notes: scFab-Fc heterodimer
In the case of B4, the dissociation constant (Kd) amounted to 1.1 nM with Cyno B7H6-His [1], 7.6 nM with Human CD3 E+G HuFc-6xHis and 8.5 nM with Cyno CD3 E+G HuFc-6xHis [2]. Also, the “cy/hu CD3” value with Cyno CD3 E+G HuFc-6xHis [3] was determined as 1.1. In addition, the “cy/hu B7-H6” value in the assay with Cyno B7H6-His [4] turned out to be 0.8. Moreover, the values for the binding result with CD3 on human T-cells and with Human B7H1 were “binds” and “no binding (tested: 1 µM)”, respectively. Further, the “Non-specific binding (RU)” value in assay [5] amounted to 8.8 RU; in assay [6] it was 22.6 RU.
